Experimental data taken from PMC6338552 (Biochemistry, 2018).
Read-outs that look alike come from different tables or passages of the source. TMR = 6-carboxytetramethylrhodamine

B1: TMR-JIPtide (peptide)
peptide: {TMR}-RPKRPTTLNLF-OH
B2: His6-JNK1α1 (enzyme, UniProt P45983-2 1-384, looked up)
chain: MSRSKRDNNFYSVEIGDSTFTVLKRYQNLKPIGSGAQGIVCAAYDAILERNVAIKKLSRPFQNQTHAKRAYRELVLMKCVNHKNIIGLLNVFTPQKSLEEFQDVYIVMELMDANLCQVIQMELDHERMSYLLYQMLCGIKHLHSAGIIHRDLKPSNIVVKSDCTLKILDFGLARTAGTSFMMTPYVVTRYYRAPEVILGMGYKENVDLWSVGCIMGEMVCHKILFPGRDYIDQWNKVIEQLGTPCPEFMKKLQPTVRTYVENRPKYAGYSFEKLFPDVLFPADSEHNKLKASQARDLLSKMLVIDASKRISVDEALQHPYINVWYDPSEAEAPPPKIPDKQLDEREHTIEEWKELIYKEVMDLEERTKNGVIRGQPSPLAQVQQ

Legend:
Assay in all cases: fluorescence polarisation
[1] = molecular target: B2
[2] = molecular target: T1, His6-JNK3α1 (UniProt P53779-2 1-422)
[3] = molecular target: T2, His6-JNK2α1 (UniProt P45984-2 1-382)
[4] = molecular target: T1, His6-JNK3α1; remark: listed apart in the source
[5] = molecular target: B2; remark: listed apart in the source
[6] = molecular target: T1, His6-JNK3α1; remark: listed apart in the source
[7] = molecular target: T2, His6-JNK2α1; remark: listed apart in the source
[8] = molecular target: B2; remark: listed apart in the source
[9] = molecular target: T1, His6-JNK3α1; remark: listed apart in the source
[10] = molecular target: T2, His6-JNK2α1; remark: listed apart in the source
[11] = molecular target: B2; remark: listed apart in the source
[12] = molecular target: T1, His6-JNK3α1; remark: listed apart in the source
[13] = molecular target: T2, His6-JNK2α1; remark: listed apart in the source
[14] = molecular target: B2; remark: listed apart in the source
[15] = molecular target: T1, His6-JNK3α1; remark: listed apart in the source
[16] = molecular target: T2, His6-JNK2α1; remark: listed apart in the source
[17] = molecular target: B2; remark: listed apart in the source
[18] = molecular target: T1, His6-JNK3α1; remark: listed apart in the source
[19] = molecular target: T2, His6-JNK2α1; remark: listed apart in the source
[20] = molecular target: B2; remark: listed apart in the source
[21] = molecular target: T1, His6-JNK3α1; remark: listed apart in the source
[22] = molecular target: T2, His6-JNK2α1; remark: listed apart in the source
[23] = molecular target: B1

Binder: B1
Kd [1]: 0.23 µM
Kd [2]: 0.48 µM
Kd [3]: 4.6 µM
Kd [4]: 1.9 µM
Kd [5]: 14 µM
Kd [6]: 12 µM
Kd [7]: 17 µM
Kd [8]: 0.44 µM
Kd [9]: 1.5 µM
Kd [10]: 5.1 µM
Kd [11]: 3.2 µM
Kd [12]: 4.6 µM
Kd [13]: 15 µM
Kd [14]: 0.25 µM
Kd [15]: 0.64 µM
Kd [16]: 3 µM
Kd [17]: 1.5 µM
Kd [18]: 2.8 µM
Kd [19]: 6 µM
Kd [20]: 0.68 µM
Kd [21]: 1.7 µM
Kd [22]: 37 µM

Binder: B2
fold tighter binding than apo-JNK1 [23]: 2 fold
